From publication PMC6828947, “The Cotton GhWRKY91 Transcription Factor Mediates Leaf Senescence and Responses to Drought Stress in Transgenic Arabidopsis thaliana” come the findings set out here.

Series [1] concerns the target T1, GhWRKY91 (Gossypium hirsutum (CCRI10), UniProt A0A068LD65 1-273). Description: EMSA; LightShift Chemiluminescent EMSA Kit (Thermo Scientific); buffer, salt, pH and temperature not stated. The following applies: protein: recombinant; tags: N-terminal GST, removed by digestion after purification; label: biotin end label.
The target of series [2] is T1, GhWRKY91. Description: competition; excess unlabelled probe against labelled GhWRKY17 probe; LightShift Chemiluminescent EMSA Kit (Thermo Scientific); buffer, salt, pH and temperature not stated. The following applies: protein: recombinant; tags: N-terminal GST, removed by digestion after purification.

T1 sequence (A0A068LD65 entry or part of it): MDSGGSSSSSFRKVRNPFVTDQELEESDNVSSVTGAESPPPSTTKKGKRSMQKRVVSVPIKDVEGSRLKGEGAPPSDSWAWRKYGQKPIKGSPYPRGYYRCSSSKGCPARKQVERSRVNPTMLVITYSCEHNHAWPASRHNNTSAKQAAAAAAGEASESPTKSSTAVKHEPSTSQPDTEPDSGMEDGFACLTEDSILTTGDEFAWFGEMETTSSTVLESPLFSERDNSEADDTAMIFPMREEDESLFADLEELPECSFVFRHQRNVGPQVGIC

B1: GhWRKY27a promoter W-box probe (dsDNA)
DNA 1: GCGACTTGGTCAGCAATTGGAGTTTTGACCTTACCTCACTCTTCAGTCCAC
DNA 2: GTGGACTGAAGAGTGAGGTAAGGTCAAAACTCCAATTGCTGACCAAGTCGC
In the case of B1, in the series with GhWRKY91 [1], the binding result is “no binding”.

B2: GhWRKY68 promoter W-box probe (dsDNA)
DNA 1: GCACTGTTCAATATCCGTACAAGTGGTTGACCTACAATTGCCCGTCGATCC
DNA 2: GGATCGACGGGCAATTGTAGGTCAACCACTTGTACGGATATTGAACAGTGC
As for B2, in the series with GhWRKY91 [1], the binding result is “no binding”.

B3: GhWRKY17 promoter W-box probe (dsDNA)
DNA 1: AATTTCAAACGGCTAATCCCCACCTTTTGACCTTATCTCTTGTCAGTGACCCA
DNA 2: TGGGTCACTGACAAGAGATAAGGTCAAAAGGTGGGGATTAGCCGTTTGAAATT
As to B3, the binding result with GhWRKY91 [1] is reported as “binds”.

B4: GhWRKY17 promoter W-box probe, unlabelled competitor (dsDNA)
DNA 1: AATTTCAAACGGCTAATCCCCACCTTTTGACCTTATCTCTTGTCAGTGACCCA
DNA 2: TGGGTCACTGACAAGAGATAAGGTCAAAAGGTGGGGATTAGCCGTTTGAAATT
As for B4, the binding result in the series with GhWRKY91 [2] was “binds”.

B5: GhAPX1 promoter W-box probe (dsDNA)
DNA 1: TCCCCGACGTTCCGACAAGTTTTGACTATTTTATTTTCTTAAAATAAAAAGC
DNA 2: GCTTTTTATTTTAAGAAAATAAAATAGTCAAAACTTGTCGGAACGTCGGGGA
B5: the binding result in the series with GhWRKY91 [1] is on record as “no binding”.
